Laboratory results taken from publication PMC4005696, “Type III restriction endonucleases are heterotrimeric: comprising one helicase–nuclease subunit and a dimeric methyltransferase that binds only one specific DNA” (Nucleic Acids Research, 2014).
Positions count from the first letter of the chain named. Numbers in names are those of the source.

Legend:
PstII Res subunit = test: SEC-MALS; 0.5–1.0 mg/ml (1.25–2.5 µM) enzyme, Superdex 200, Standard Assay Buffer minus BSA (50 mM Tris–HCl pH 8.0, 50 mM KCl, 10 mM MgCl2, 1 mM DTT), room temperature; enzyme alone or with excess Hex-labelled specific 50-mer DNA, with or without 1 mM ATP
PstII Mod subunit = test: as above
[1] = target: EcoPI Res subunit (wild type, untagged) (Escherichia coli); test: as above
[2] = target: EcoPI Res subunit (wild type, untagged) (Escherichia coli); test: native MS; enzyme only, 10 µM, dialysed against 100 mM ammonium acetate pH 7.0; Q-TOF II modified for high-mass operation
[3] = target: the molecule itself; test: native MS; wt EcoP15I 5 µM with 10 µM 50-mer DNA (1:2), 2 mM magnesium acetate (4 mM MgOAc and 2 mM ATP where ATP was added), buffer-exchanged into 100 mM ammonium acetate; Synapt G2 HDMS
[4] = target: T1, EcoP15I Res subunit R534A (Escherichia coli, UniProt Q5ZND2 1-970, R534A); test: SEC-MALS; 0.5–1.0 mg/ml (1.25–2.5 µM) enzyme, Superdex 200, Standard Assay Buffer minus BSA (50 mM Tris–HCl pH 8.0, 50 mM KCl, 10 mM MgCl2, 1 mM DTT), room temperature; enzyme alone or with excess Hex-labelled specific 50-mer DNA, with or without 1 mM ATP; details: both partners purified
T1 construct: Res subunit of the Type III restriction endonuclease EcoP15I, Escherichia coli; mutated in Motif VI of the helicase, lacks ATPase activity; also called R534A EcoP15I; R534A P15I; source: purified identically to the wild-type (DEAE-Sepharose, heparin, Superdex 200), co-purified with Mod
T1 sequence (looked up): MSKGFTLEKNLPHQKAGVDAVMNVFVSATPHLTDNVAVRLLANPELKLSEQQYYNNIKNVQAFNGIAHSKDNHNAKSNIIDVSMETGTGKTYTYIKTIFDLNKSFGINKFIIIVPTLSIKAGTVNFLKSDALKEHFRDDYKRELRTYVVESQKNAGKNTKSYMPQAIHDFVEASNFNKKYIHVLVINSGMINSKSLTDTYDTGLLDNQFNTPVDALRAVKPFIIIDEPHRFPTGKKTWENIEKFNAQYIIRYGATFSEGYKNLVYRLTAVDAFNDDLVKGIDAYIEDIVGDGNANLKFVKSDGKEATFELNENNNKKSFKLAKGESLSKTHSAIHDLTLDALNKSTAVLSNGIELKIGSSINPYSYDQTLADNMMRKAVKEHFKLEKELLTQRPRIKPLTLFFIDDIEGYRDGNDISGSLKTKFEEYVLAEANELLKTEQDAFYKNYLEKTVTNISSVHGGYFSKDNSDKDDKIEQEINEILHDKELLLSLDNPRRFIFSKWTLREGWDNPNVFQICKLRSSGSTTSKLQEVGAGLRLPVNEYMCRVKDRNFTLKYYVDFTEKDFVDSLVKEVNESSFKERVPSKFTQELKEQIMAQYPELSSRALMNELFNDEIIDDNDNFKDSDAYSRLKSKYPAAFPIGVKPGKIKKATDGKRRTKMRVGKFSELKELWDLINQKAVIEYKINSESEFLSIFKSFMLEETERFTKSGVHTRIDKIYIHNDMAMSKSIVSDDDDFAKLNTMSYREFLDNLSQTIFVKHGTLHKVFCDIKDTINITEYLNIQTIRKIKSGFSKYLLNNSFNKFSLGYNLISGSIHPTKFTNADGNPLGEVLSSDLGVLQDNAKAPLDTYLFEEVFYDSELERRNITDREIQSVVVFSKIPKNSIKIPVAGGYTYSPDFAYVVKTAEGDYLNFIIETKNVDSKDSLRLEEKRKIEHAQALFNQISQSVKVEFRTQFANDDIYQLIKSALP

[5] = target: T2, EcoP15I Res subunit (wild type, untagged) (Escherichia coli, UniProt Q5ZND2 1-970); test: native MS; enzyme only, 10 µM, dialysed against 100 mM ammonium acetate pH 7.0; Q-TOF II modified for high-mass operation; details: both partners purified
T2 construct: Res (restriction) subunit of the Type III restriction endonuclease EcoP15I, Escherichia coli; Made only together with Mod from the natural operon; also called wt EcoP15I
T2 sequence (looked up): T1 sequence (looked up) with A534R

[6] = target: T3, EcoP15I Res subunit with C-terminal Avi-tag, biotinylated (Escherichia coli, UniProt Q5ZND2 1-970, biotin on the Avi-tag (co-expressed biotin ligase)); test: as above; details: both partners purified
T3 construct: Res subunit of the Type III restriction endonuclease EcoP15I, Escherichia coli; also called biotinylated EcoP15I; bio-EcoP15I; not shown: Avi-tag, C-terminal, kept
T3 sequence (looked up): T1 sequence (looked up) with A534R

[7] = target: T4, EcoP15I Res subunit (commercial enzyme from New England Biolabs) (Escherichia coli, UniProt Q5ZND2 1-970); test: SEC-MALS; 0.5–1.0 mg/ml (1.25–2.5 µM) enzyme, Superdex 200, Standard Assay Buffer minus BSA (50 mM Tris–HCl pH 8.0, 50 mM KCl, 10 mM MgCl2, 1 mM DTT), room temperature; enzyme alone or with excess Hex-labelled specific 50-mer DNA, with or without 1 mM ATP; details: both partners purified
T4 construct: Res subunit of the Type III restriction endonuclease EcoP15I, Escherichia coli; also called EcoP15I NEB; commercially available EcoP15I; source: bought: NEB (catalogue no. R0646S)
T4 sequence (looked up): T1 sequence (looked up) with A534R

[8] = target: T5, EcoPI holoenzyme (Res1Mod2) (Escherichia coli, UniProt P08764;P08763 1-970;1-646); test: native MS; no ATP; 1:1 complex 288.1 kDa; SEC-MALS: 50 mM Tris-HCl pH 8.0, 50 mM KCl, 10 mM MgCl2, 1 mM DTT, 0.1 mg/ml BSA (Standard Assay Buffer), 20 C; native MS: volatile ammonium acetate buffer, enzyme:DNA 1:2; details: protein: recombinant; tags: none; copies: 1;2
[9] = target: T5, EcoPI holoenzyme (Res1Mod2); test: SEC-MALS; 10 mM Mg2+, no ATP; 1:1 Res1Mod2:DNA; SEC-MALS: 50 mM Tris-HCl pH 8.0, 50 mM KCl, 10 mM MgCl2, 1 mM DTT, 0.1 mg/ml BSA (Standard Assay Buffer), 20 C; native MS: volatile ammonium acetate buffer, enzyme:DNA 1:2; details: protein: recombinant; tags: none; copies: 1;2; label: 5'-Hex (12C linker) on top strand

PstII Mod subunit (enzyme)
stoichiometry N (PstII Res subunit): 2 Mod per Res | stoichiometry N (PstII Mod subunit): 2

EcoPI Mod subunit (untagged) (enzyme)
stoichiometry N [1]: 2 Mod per Res | stoichiometry N [2]: 2 Mod per Res

B1: EcoP15I Mod subunit (untagged) (enzyme, Escherichia coli, UniProt P12364 1-644, looked up)
chain: MKKETIFSEVETANSKQLAVLKANFPQCFDKNGAFIQEKLLEIIRASEVELSKESYSLNWLGKSYARLLANLPPKTLLAEDKTHNQQEENKNSQHLLIKGDNLEVLKHMVNAYAEKVKMIYIDPPYNTGKDGFVYNDDRKFTPEQLSELAGIDLDEAKRILEFTTKGSSSHSAWLTFIYPRLYIARELMREDGTIFISIDHNEFSQLKLVCDEIFGEQNHVGDLVWKNATDNNPSNIAVEHEYIIVYTKNKEQLISEWKSNISDVKNLLVNIGEEFASKYTGNELQEKYTQWFREHRSELWPLDRYKYIDKDGIYTGSQSVHNPGKEGYRYDIIHPKTKKPCKQPLMGYRFPLDTMDRLLSEEKIIFGDDENKIIELKVYAKDYKQKLSSVIHLDGRVATNELKELFPEMTQPFTNAKTIKLVEDLISFACDGEGIVLDFFAGSGTTAHTVFNLNNKNKTSYQFITVQLDEPTKDKSDAMKHGYNTIFDLTKERLIRASKKNRDQGFKVYQLMPDFRAKDESELTLSNHTFFDDVVLTPEQYDTLLTTWCLYDGSLLTTPIEDVDLGGYKAHLCDGRLYLIAPNFTSEALKALLQKVDSDKDFAPNKVVFYGSNFESAKQMELNEALKSYANKKSIELDLVVRN
notes: Mod (modification) subunit of the Type III restriction endonuclease EcoP15I, Escherichia coli; also called Mod2 (as dimer); source: with biotinylated Res: avidin resin, Mono-Q
stoichiometry N [3]: 2 | binding result [4]: binds | stoichiometry N [5]: 2 Mod per Res | stoichiometry N [6]: 2 Mod per Res

B2: EcoP15I Mod subunit (commercial enzyme from New England Biolabs) (enzyme, Escherichia coli, UniProt P12364 1-644, looked up)
chain: B1 chain
notes: Mod subunit of the Type III restriction endonuclease EcoP15I, Escherichia coli; also called EcoP15I NEB; commercially available EcoP15I; source: bought: NEB (catalogue no. R0646S)
stoichiometry N [7]: 2 Mod per Res

B3: EcoPI specific 50-mer duplex (sDNA), native MS (dsDNA)
DNA 1: TGGCTTAGACCCAGCGCAGATACCAAAACTGTCCTTCTATTGACAATTCG
DNA 2: CGAATTGTCAATAGAAGGACAGTTTTGGTATCTGCGCTGGGTCTAAGCCA
binding result [8]: binds

B4: EcoPI specific 50-mer duplex (sDNA), Hex (dsDNA)
DNA 1: B3 DNA 1
DNA 2: B3 DNA 2
binding result [9]: binds
